Data on three substances can be found in patent US20240132578A1.

Holding throughout (assay): cell-based or functional assay
In test [1] the target is HIV-1 92RW024 envelope glycoprotein (Env) on pseudovirus (HIV-1 (clade A)).
Test [2] has as its target HIV-1 Env of isolate 92BR020, clade B (HIV-1).
For test [3], the target named is HIV-1 Env of isolate 92UG046 (clade D pseudovirus) (HIV-1).
The target in test [4] is HIV-1 Env of isolate 94UG103 (Clade A) (HIV-1).
The target of test [5] is HIV-1 Env of isolate MGRM-A-006 (clade A pseudovirus) (HIV-1).
Test [6] addresses HIV-1 Env of isolate SC422661.8 (Acute), clade B (HIV-1).
For test [7], the target named is HIV-1 Env of pseudovirus MGRM-F1-008 (clade F) (HIV-1).
For test [8], the target named is HIV-1 Env of pseudovirus MGRM-F1-014 (clade F) (HIV-1).
Test [9] addresses HIV-1 Env of pseudovirus MGRM-F1-016 (clade F) (HIV-1).
For test [10], the target named is HIV-1 Env of pseudovirus MGRM-F1-018 (clade F) (HIV-1).
Test [11] addresses HIV-1 Env of pseudovirus MGRM-F1-023 (clade F) (HIV-1).
Test [12] addresses HIV-1 Env of pseudovirus MGRM-G-024 (HIV-1).
In test [13] the target is HIV-1 MGRM-AE-005 Env (pseudovirus) (HIV-1).
For test [14], the target named is HIV-1 MGRM-AG-009 Env (pseudovirus) (HIV-1).
Test [15] has as its target HIV-1 MGRM-AG-012 Env (pseudovirus) (HIV-1).
The target of test [16] is HIV-1 envelope glycoprotein (Env) of isolate MGRM-C-005 (HIV-1).
Test [17] deals with HIV-1 envelope glycoprotein (Env) of isolate MGRM-C-017 (HIV-1).
Test [18] has as its target HIV-1 envelope glycoprotein (Env) of isolate MGRM-C-024 (HIV-1).

Broadly, the IC50 is the concentration that gives 50% inhibition. Read a high IC50 as weaker potency in that assay. As to 4E10 (antibody), the IC50 (µg/ml), pseudovirus neutralization is 8.88 µg/mL in test [1]; more than 50 µg/mL in test [2]; 9.87 µg/mL in test [5]; 6.35 µg/mL in test [6]; 1.57 µg/mL in [12]; 0.47 µg/mL in [13]. In addition, the IC50 (µg/ml), pseudovirus neutralization in test [14] was 31.4 µg/mL; in [15] it was 0.86 µg/mL; in test [16], 16.4 µg/mL; in [17] it was 1.47 µg/mL; in test [18], 22.6 µg/mL. For the same substance, the IC50, pseudovirus neutralization in [3] turned out to be 12.2 µg/mL. In test [4], this substance gave an IC90 (neutralization of pseudovirus) of more than 50 µg/mL. For the same substance, the half-maximal inhibitory concentration (IC50) in test [7] was found to be 2.75 µg/mL; in test [8] it was 7.36 µg/mL; in [9] it was 7.61 µg/mL; in [10], 3.6 µg/mL; in test [11] it was 0.44 µg/mL.

For the substance 2F5 (antibody), the IC50 (µg/ml), pseudovirus neutralization was 8.22 µg/mL in test [1]; more than 50 µg/mL in test [2]; 15.7 µg/mL in test [5]; more than 50 µg/mL in test [6]; 1.07 µg/mL in [12]; 0.14 µg/mL in [13]. The IC50 (µg/ml), pseudovirus neutralization in test [14] was 24.8 µg/mL; in test [15], 0.33 µg/mL; in test [16], more than 50 µg/mL; in test [17] it was more than 50 µg/mL; in test [18], more than 50 µg/mL. Besides, the IC50, pseudovirus neutralization in test [3] is more than 50 µg/mL. In test [4], this substance displayed an IC90 (neutralization of pseudovirus) of 46.6 µg/mL. For the same substance, the IC50 in [7] worked out at 1.61 µg/mL; in test [8], 15.1 µg/mL; in test [9], 21.5 µg/mL; in [10], 3.91 µg/mL; in [11] it was 1.78 µg/mL.

In the case of 2G12 (antibody), the IC50 (µg/ml), pseudovirus neutralization is more than 50 µg/mL in test [1]; 4.84 µg/mL in test [2]; 13.8 µg/mL in test [5]; 0.84 µg/mL in [6]; more than 50 µg/mL in [12]; more than 50 µg/mL in [13]. Also, the IC50 (µg/ml), pseudovirus neutralization in [14] was more than 50 µg/mL; in [15], 1.94 µg/mL; in test [16], more than 50 µg/mL; in [17], more than 50 µg/mL; in [18] it was more than 50 µg/mL. In test [3], the IC50, pseudovirus neutralization is more than 50 µg/mL. In addition, the IC90 (neutralization of pseudovirus) in [4] was more than 50 µg/mL. The IC50 in [7] is more than 50 µg/mL; in test [8], more than 50 µg/mL; in [9], more than 50 µg/mL; in test [10] it was more than 50 µg/mL; in test [11], 9.23 µg/mL.
